Series [1] concerns the target T1, DisA (Bacillus subtilis, UniProt P37573).
T1 construct: full length, expressed in E. coli BL21(DE3) pLysS; octamer; C-terminal His tag in the pull-down variant
T1 sequence (P37573 1-360): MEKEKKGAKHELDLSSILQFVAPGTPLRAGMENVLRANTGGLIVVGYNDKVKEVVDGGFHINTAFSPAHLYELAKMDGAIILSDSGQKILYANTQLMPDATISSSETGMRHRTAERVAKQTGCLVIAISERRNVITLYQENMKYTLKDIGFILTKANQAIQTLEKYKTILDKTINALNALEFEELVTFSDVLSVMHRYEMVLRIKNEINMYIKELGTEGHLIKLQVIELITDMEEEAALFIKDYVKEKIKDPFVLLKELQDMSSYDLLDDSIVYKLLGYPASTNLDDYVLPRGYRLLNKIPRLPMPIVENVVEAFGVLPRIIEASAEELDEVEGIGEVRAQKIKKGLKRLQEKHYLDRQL
In words: TLC of conversion to c-di-AMP. Format: biochemical. The settings on record: 10 mM MgCl2, 100 µM ATP, pH 7.5, 37 °C, no DNA; labelled compound.

Series [2] addresses T2, DisA (Bacillus subtilis, UniProt P37573 1-360).
T2 sequence: T1 sequence (P37573 1-360)
In words: EMSA; 5 mM ATPgS; 37 C; 0.2% glutaraldehyde before loading; apparent Kd; complexes retained in well; EMSA: 0.1 nM HJ-J3 in buffer B (composition not in material) with 5 mM ATPgS, 15 min, 37 C, 0.2% glutaraldehyde before 6% PAGE in TAE; DNase I: buffer C 50 mM Tris-HCl pH 7.5, 1 mM DTT, 50 mM NaCl, 10 mM MgCl2, 0.05 mg/mL BSA, 5% glycerol, 5 mM ATPgS, 37 C. The settings on record: protein: recombinant; chain copies: 8; label: 32P (gamma-32P, 5' end of one strand); four-way Holliday junction of 4 strands, 1 copy each, heterologous arms. A general note: A gel shift assay detects complexes by their altered migration in electrophoresis.

For series [3], the target named is T3, RecG (Bacillus subtilis, UniProt O34942 1-682).
T3 sequence: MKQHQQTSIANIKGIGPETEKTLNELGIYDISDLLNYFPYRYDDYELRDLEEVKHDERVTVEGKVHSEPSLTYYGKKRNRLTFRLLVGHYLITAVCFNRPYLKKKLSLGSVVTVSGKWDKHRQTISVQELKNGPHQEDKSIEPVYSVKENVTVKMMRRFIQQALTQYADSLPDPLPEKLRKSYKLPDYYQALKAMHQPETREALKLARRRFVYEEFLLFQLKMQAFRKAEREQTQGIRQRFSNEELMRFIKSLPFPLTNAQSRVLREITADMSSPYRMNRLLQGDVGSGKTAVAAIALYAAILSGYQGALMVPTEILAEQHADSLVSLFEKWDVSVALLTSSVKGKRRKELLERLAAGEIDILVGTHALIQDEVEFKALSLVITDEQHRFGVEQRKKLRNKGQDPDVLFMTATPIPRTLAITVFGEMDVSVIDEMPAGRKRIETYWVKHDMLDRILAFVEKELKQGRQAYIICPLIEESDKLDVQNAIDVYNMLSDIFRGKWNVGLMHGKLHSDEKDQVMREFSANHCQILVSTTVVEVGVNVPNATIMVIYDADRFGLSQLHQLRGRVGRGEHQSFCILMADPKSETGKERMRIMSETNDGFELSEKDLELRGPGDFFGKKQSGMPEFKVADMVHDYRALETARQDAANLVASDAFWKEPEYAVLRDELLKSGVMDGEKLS
Kind of series: EMSA; 5 mM ATPgS; 37 C; 0.2% glutaraldehyde before loading; apparent Kd; G-I and minor G-II complexes; EMSA: 0.1 nM HJ-J3 in buffer B (composition not in material) with 5 mM ATPgS, 15 min, 37 C, 0.2% glutaraldehyde before 6% PAGE in TAE; DNase I: buffer C 50 mM Tris-HCl pH 7.5, 1 mM DTT, 50 mM NaCl, 10 mM MgCl2, 0.05 mg/mL BSA, 5% glycerol, 5 mM ATPgS, 37 C. The settings on record: protein: recombinant; label: 32P (gamma-32P, 5' end of one strand); four-way Holliday junction of 4 strands, 1 copy each, heterologous arms.

Series [4] addresses T4, DisA;RecG (Bacillus subtilis;Bacillus subtilis, UniProt P37573;O34942 1-360;1-682, |).
T4 sequence 1: T1 sequence (P37573 1-360)
T4 sequence 2: T3 sequence
Kind of series: DNase I footprinting; 5 mM ATPgS, 10 mM Mg2+; 60 nM RecG with increasing DisA; shorter protection on both sides of junction; ternary complex proposed; EMSA: 0.1 nM HJ-J3 in buffer B (composition not in material) with 5 mM ATPgS, 15 min, 37 C, 0.2% glutaraldehyde before 6% PAGE in TAE; DNase I: buffer C 50 mM Tris-HCl pH 7.5, 1 mM DTT, 50 mM NaCl, 10 mM MgCl2, 0.05 mg/mL BSA, 5% glycerol, 5 mM ATPgS, 37 C. The settings on record: protein: recombinant;recombinant; tags: ;; chain copies: 8;1; label: 32P (gamma-32P, 5' end of one strand); four-way Holliday junction of 4 strands, 1 copy each, heterologous arms.

For series [5], the target named is T5, His-tagged DisA (B. subtilis, UniProt P37573 1-360).
T5 sequence (looked up): T1 sequence (P37573 1-360)
Kind of series: cell-based or functional assay.

The source of these data is article PMC8227628, “DisA Limits RecG Activities at Stalled or Reversed Replication Forks” (Cells, 2021).

In the case of `Nc1ncnc2c1ncn2[C@@H]1O[C@@H]2COP(=O)(O)O[C@H]3[C@@H](O)[C@H](n4cnc5c(N)ncnc54)O[C@@H]3COP(=O)(O)O[C@H]2[C@H]1O` [c-di-AMP], the “TLC of [α^32P]-ATP conversion to c-di-AMP” value in series [1] was “it efficiently converted two ATP molecules into c-di-AMP”.

B1: HJ-J3 DNA (fixed Holliday junction) (structured_DNA)
DNA 1: CGCAAGCGACAGGAACCTCGAGAAGCTTCCGGTAGCAGCCTGAGCGGTGGTTGAATTCCTCGAGGTTCCTGTCGCTTGCG
DNA 2: CGCAAGCGACAGGAACCTCGAGGAATTCAACCACCGCTCAACTCAACTGCAGTCTAGACTCGAGGTTCCTGTCGCTTGCG
DNA 3: CGCAAGCGACAGGAACCTCGAGTCTAGACTGCAGTTGAGTCCTTGCTAGGACGGATCCCTCGAGGTTCCTGTCGCTTGCG
DNA 4: CGCAAGCGACAGGAACCTCGAGGGATCCGTCCTAGCAAGGGGCTGCTACCGGAAGCTTCTCGAGGTTCCTGTCGCTTGCG
As to B1, the Kd in series [2] is 17 ± 1 nM; in series [3] it was 4 ± 0.3 nM. The binding result in series [4] is “binds”.

B2: native RecG (natural protein, B. subtilis, UniProt O34942 1-682, looked up)
chain: T3 sequence
Turning to B2, the “inhibition of the DAC activity (c-di-AMP synthesis) of DisA (25 nM) with HJ-J3 DNA (125 nM) and 100 µM ATP, RecG 7 to 30 nM” value in series [5] was roughly 11 fold.
